Laboratory results: paper PMC5014452

Key:
Assay in all cases: EMSA
[1] = biological target: recombinant human integrin α6β1 (Homo sapiens, UniProt P23229;P05556 24-1050;21-728)
[2] = biological target: recombinant murine integrin α6β4 (Mus musculus, UniProt Q61739;A2A863 24-1011;29-712)
[3] = biological target: recombinant human integrin α6β4 (Homo sapiens, UniProt P23229;P16144 24-1050;28-710)

Measured: binding result

Sequence of recombinant murine integrin α6β4 (Q61739 24-1011, chain 1 of 2): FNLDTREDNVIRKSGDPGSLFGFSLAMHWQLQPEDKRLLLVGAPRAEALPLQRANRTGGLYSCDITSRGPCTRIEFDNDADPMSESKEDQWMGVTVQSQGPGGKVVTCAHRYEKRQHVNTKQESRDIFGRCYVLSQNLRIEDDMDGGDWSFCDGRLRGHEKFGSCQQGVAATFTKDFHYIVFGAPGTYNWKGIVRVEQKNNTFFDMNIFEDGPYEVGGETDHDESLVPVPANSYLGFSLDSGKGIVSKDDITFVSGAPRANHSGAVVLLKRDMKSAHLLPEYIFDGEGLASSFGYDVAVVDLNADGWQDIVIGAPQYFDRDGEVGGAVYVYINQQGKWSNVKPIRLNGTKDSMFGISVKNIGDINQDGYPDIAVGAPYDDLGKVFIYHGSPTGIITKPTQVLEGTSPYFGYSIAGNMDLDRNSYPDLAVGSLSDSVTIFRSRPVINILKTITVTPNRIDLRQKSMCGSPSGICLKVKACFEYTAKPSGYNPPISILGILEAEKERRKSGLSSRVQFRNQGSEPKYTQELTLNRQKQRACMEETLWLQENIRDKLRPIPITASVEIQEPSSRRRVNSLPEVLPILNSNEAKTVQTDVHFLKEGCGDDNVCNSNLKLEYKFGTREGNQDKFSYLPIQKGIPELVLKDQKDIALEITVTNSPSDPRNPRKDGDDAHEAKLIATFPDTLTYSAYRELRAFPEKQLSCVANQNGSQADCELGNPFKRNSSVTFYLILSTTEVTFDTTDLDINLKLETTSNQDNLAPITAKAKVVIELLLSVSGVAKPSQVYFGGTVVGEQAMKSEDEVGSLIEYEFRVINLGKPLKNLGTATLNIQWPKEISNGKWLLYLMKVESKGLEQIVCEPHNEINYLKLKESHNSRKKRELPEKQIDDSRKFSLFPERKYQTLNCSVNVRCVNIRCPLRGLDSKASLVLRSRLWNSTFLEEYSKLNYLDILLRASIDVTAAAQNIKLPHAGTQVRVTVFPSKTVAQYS
Sequence of recombinant murine integrin α6β4 (A2A863 29-712, chain 2 of 2): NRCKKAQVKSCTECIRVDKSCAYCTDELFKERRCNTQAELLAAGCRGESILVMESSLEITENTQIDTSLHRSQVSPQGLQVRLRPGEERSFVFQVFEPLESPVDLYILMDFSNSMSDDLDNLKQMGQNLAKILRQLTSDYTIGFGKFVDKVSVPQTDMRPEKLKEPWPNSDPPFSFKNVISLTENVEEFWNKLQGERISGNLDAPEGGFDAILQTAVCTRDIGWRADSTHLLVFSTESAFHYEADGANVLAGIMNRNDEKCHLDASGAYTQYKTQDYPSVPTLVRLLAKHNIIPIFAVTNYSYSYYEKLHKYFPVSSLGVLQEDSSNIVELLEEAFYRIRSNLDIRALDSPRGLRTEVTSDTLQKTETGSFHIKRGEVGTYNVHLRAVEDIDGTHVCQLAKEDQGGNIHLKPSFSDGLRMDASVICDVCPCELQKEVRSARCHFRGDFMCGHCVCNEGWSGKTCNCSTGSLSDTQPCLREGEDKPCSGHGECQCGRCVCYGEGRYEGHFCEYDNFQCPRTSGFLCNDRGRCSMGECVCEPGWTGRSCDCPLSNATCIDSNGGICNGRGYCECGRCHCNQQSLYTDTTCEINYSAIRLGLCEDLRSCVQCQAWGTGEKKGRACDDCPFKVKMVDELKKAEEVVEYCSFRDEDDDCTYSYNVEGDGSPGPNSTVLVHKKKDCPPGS
Sequence of recombinant human integrin α6β4 (P23229 24-1050, chain 1 of 2): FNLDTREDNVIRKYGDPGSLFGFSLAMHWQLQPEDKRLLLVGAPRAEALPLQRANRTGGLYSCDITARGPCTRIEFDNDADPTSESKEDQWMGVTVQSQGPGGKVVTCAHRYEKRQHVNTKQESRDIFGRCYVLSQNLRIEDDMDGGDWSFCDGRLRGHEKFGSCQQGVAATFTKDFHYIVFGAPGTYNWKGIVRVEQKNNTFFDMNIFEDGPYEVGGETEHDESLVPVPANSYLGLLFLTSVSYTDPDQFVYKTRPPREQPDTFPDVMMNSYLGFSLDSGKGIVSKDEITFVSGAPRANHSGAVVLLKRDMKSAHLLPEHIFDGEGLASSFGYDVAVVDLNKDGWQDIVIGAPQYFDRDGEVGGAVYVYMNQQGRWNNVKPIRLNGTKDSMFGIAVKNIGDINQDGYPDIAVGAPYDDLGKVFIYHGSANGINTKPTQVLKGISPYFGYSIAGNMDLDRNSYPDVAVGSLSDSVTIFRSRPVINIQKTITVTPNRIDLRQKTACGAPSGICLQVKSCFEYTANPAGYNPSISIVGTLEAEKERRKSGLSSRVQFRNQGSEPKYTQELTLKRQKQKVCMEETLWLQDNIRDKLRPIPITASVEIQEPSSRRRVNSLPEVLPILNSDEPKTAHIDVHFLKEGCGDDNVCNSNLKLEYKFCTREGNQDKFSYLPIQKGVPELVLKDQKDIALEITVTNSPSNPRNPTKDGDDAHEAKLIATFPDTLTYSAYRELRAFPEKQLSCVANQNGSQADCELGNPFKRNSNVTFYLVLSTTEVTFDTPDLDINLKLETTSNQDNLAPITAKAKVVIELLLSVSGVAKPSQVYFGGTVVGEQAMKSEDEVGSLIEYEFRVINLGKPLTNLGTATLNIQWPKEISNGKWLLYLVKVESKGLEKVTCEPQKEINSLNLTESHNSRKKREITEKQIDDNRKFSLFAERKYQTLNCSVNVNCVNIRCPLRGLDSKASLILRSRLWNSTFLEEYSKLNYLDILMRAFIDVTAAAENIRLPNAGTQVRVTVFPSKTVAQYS
Sequence of recombinant human integrin α6β4 (P16144 28-710, chain 2 of 2): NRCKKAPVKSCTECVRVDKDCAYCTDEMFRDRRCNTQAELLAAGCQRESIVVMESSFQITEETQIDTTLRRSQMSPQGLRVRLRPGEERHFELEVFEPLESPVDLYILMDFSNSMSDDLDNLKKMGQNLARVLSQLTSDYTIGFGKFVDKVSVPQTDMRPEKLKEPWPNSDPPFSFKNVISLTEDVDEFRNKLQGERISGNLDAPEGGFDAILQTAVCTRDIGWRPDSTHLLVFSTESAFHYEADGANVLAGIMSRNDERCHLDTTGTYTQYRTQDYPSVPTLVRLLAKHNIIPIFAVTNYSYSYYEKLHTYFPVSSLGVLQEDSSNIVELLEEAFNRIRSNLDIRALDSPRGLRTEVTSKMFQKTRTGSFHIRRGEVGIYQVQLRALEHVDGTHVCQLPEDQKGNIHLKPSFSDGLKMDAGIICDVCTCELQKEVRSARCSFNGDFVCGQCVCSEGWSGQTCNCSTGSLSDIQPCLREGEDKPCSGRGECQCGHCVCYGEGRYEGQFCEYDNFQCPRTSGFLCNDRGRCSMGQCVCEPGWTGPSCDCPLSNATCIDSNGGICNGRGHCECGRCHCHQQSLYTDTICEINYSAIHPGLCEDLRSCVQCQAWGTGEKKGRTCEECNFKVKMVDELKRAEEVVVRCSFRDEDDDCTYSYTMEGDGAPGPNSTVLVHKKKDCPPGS
Sequence of recombinant human integrin α6β1 (P23229 24-1050, chain 1 of 2): as the sequence (P23229 24-1050, chain 1 of 2) above
Sequence of recombinant human integrin α6β1 (P05556 21-728, chain 2 of 2): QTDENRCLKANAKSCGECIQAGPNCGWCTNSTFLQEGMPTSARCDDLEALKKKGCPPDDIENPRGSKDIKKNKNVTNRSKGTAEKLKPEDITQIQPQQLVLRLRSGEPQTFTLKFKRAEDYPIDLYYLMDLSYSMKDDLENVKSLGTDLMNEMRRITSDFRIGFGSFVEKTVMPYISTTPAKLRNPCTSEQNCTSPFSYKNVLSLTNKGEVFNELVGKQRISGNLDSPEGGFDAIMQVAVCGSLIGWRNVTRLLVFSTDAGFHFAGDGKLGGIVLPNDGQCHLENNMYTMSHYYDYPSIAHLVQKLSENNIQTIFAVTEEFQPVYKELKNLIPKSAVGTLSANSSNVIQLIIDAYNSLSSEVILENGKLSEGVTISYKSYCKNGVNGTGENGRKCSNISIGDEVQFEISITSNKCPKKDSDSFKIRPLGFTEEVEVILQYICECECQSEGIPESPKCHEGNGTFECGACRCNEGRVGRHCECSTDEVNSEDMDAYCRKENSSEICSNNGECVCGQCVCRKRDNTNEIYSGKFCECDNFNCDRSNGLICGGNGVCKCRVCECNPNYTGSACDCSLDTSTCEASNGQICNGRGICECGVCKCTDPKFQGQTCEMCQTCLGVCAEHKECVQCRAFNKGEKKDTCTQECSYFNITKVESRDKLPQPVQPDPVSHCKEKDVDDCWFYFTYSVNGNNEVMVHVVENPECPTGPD

B1: IDA (nc28) (ssDNA)
DNA: GCCTGTTGTGAGCCTCCTAACCGTGCGTATTCGTACTGGAACTGATATCGATGTCCCCATGCTTATTCTTGTCTCCC
binds: all assays above
